Laboratory results taken from patent publication US20240199762A1 (PHILOGEN S P A, published 2024).
Each block holds one binder with its values, some of them ahead of it.

Assays:
[1] = target: T1, human FAP expressed on transduced cells (SKRC52-hFAP, HT-1080-hFAP) (human, UniProt Q12884 1-760); assay: flow cytometry on HT-1080-hFAP and SKRC52-hFAP cells against wild-type cells
T1 construct: whole, on cells; Also the target in SKRC52-hFAP tumor cryosections and in tumors of tumor-bearing mice; also called cell-expressed human FAP
T1 sequence (looked up): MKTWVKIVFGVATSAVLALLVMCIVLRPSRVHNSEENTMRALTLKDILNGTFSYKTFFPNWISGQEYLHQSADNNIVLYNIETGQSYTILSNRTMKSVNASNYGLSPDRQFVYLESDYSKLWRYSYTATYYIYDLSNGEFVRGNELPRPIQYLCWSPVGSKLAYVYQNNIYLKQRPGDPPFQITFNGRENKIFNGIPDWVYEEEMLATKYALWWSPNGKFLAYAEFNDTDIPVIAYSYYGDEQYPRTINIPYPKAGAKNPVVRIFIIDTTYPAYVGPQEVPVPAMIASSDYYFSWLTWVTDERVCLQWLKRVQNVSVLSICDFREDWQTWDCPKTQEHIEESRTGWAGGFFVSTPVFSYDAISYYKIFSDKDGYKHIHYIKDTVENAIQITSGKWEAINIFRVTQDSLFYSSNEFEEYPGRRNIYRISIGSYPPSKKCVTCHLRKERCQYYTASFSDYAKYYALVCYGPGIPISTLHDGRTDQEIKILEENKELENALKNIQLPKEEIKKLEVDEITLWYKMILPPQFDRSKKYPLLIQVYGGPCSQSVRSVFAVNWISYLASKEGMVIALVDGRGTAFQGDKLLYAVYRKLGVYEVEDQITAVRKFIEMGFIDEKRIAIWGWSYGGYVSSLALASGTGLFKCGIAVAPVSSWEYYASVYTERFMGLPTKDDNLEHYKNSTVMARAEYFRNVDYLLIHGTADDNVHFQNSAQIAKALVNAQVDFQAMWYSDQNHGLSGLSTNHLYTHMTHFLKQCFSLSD
Experimental: The cell lines used were the human renal cell carcinoma cell line SKRC52 and the human fibrosarcoma cell line HT-1080.
Specifically, SKRC52-hFAP, SKRC52 wild-type (wt), HT-1080-hFAP and HT-1080 wt cells were detached from cell culture plates using Accutase, counted and suspended to a final concentration of 1×10⁶ cells/mL in FACS buffer (0.5% BSA, 2 mM EDTA in PBS). Cells were incubated with the 7NP2 or KSF antibodies in SIP format and binding detected using an […] (25 μg/ml), followed by staining with the anti-rat AlexaFluor488 antibody. Cells were analyzed on a CytoFLEX cytometer (Beckman Coulter). The raw data were processed using the FlowJo 10.4 software.

[2] = target: T2, human FAP-ECD (extracellular domain) recombinant fragment containing a C-terminal His6 tag (human, UniProt Q12884 26-760, randomly biotinylated with NHS ester-activated biotin (as used on the SA chip and Streptawell plates)); assay: SPR, BIAcore X100, biotinylated human FAP-ECD on SA chip (1500 RU), monomeric scFv injected
T2 construct: also called biotinylated human FAP-ECD; biotinylated human FAP
T2 sequence: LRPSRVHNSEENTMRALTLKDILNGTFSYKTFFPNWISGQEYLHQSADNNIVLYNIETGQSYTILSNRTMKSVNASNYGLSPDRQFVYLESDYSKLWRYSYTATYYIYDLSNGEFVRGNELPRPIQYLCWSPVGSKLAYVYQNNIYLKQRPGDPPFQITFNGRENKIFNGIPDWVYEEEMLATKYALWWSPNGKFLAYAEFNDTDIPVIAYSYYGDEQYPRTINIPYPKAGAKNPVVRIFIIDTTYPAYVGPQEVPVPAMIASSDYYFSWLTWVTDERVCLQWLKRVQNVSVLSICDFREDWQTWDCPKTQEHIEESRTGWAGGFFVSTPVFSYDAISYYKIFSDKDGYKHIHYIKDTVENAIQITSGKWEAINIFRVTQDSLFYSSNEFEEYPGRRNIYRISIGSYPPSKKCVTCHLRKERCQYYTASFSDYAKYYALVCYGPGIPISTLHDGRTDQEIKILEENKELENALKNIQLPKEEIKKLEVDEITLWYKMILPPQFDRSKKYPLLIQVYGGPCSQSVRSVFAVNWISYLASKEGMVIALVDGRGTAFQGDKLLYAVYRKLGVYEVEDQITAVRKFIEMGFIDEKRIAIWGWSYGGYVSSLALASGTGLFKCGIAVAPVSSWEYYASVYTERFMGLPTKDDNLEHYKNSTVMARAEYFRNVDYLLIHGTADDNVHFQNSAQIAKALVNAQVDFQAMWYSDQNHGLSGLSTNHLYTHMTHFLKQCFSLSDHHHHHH
Experimental: Affinity measurements of the C5 and 7NP2 scFv antibodies were performed by Surface Plasmon Resonance using BIAcore X100 instrument with a biotinylated human FAP-ECD coated SA chip. A final coating of 1500 RU was achieved.
Samples were injected at a concentration of […], 450 nM and 225 nM for the C5 scFv and of 1350 nM, 675 nM, 338 nM and 170 nM for the 7NP2 scFv. No regeneration of the SA chip was performed between each run, scFvs were left to detach from the antigen. KD measurements were assessed using the BIAevaluation 3.2 software.

binding result [1]: binds
B1: anti-FAP antibody 7NP2 in SIP (small immunoprotein) format (other)
chain: EVQLLESGGGLVQPGGSLRLSCAASGFTFSSYAMSWVRQAPGKGLEWVSAIGSVGGPTYYADSVKGRFTISRDNSKNTLYLQMNSLRAEDTAVYYCAKRLAWFDYWGQGTLVTVSSGGGGSGGGGSGGGGEIVLTQSPGTLSLSPGERATLSCRASQSVSSSYLAWYQQKPGQAPRLLIYGASSRATGIPDRFSGSGSGTDFTLTISRLEPEDFAVYYCQQSGKGPLTFGQGTKVEIKSGGSGGPRAAPEVYAFATPEWPGSRDKRTLACLIQNFMPEDISVQWLHNEVQLPDARHSTTQPRKTKGSGFFVFSRLEVTRAEWEQKDEFICRAVHEAASPSQTVQRAVSVNPESSRRGGC
notes: Homodimeric mini-immunoglobulin: 77 kDa under non-reducing and 38 kDa under reducing conditions; also called 7NP2 SIP; 7NP2(SIP)

Kd [2]: 10 nM
B2: affinity-matured anti-FAP antibody 7NP2 in scFv format (scFv)
scFv: EVQLLESGGGLVQPGGSLRLSCAASGFTFSSYAMSWVRQAPGKGLEWVSAIGSVGGPTYYADSVKGRFTISRDNSKNTLYLQMNSLRAEDTAVYYCAKRLAWFDYWGQGTLVTVSSGGGGSGGGGSGGGGEIVLTQSPGTLSLSPGERATLSCRASQSVSSSYLAWYQQKPGQAPRLLIYGASSRATGIPDRFSGSGSGTDFTLTISRLEPEDFAVYYCQQSGKGPLTFGQGTKVEIK
notes: The monomeric scFv was used in BIAcore; also called 7NP2 scFv; scFv(7NP2)
